Consider three molecules from paper PMC6591361, “Recombinant production of human α2-macroglobulin variants and interaction studies with recombinant G-related α2-macroglobulin binding protein and latent transforming growth factor-β2” (Scientific Reports, 2019).

Data set [1] deals with the molecule itself. The data set can be described thus: SEC; Superose 6 10/300, buffer D (20 mM Tris-HCl, 150 mM sodium chloride, pH 7.5); data not shown.
Data set [2] concerns the molecule itself. The data set can be described thus: SEC; Superose 6 10/300 (full-length recombinant hα2M) or Superdex 75 10/300 (pro-TGF-β2), buffer D (20 mM Tris-HCl, 150 mM sodium chloride, pH 7.5).
Data set [3] deals with T1, native authentic human α2-macroglobulin (human, UniProt P01023 24-1474, thioester bond intact (native form)).
T1 construct: human α2-macroglobulin, UniProt P01023, 1,474-residue precursor; as secreted it lacks the signal peptide (recombinant constructs begin at S24); Tetramer (680.6 kDa by SEC-MALLS); glycosylated; also called hα2M; native hα2M; source: purified from human blood plasma of individual donors (PEG 4,000 precipitation, zinc-chelating resin, IEC, SEC)
T1 sequence (looked up): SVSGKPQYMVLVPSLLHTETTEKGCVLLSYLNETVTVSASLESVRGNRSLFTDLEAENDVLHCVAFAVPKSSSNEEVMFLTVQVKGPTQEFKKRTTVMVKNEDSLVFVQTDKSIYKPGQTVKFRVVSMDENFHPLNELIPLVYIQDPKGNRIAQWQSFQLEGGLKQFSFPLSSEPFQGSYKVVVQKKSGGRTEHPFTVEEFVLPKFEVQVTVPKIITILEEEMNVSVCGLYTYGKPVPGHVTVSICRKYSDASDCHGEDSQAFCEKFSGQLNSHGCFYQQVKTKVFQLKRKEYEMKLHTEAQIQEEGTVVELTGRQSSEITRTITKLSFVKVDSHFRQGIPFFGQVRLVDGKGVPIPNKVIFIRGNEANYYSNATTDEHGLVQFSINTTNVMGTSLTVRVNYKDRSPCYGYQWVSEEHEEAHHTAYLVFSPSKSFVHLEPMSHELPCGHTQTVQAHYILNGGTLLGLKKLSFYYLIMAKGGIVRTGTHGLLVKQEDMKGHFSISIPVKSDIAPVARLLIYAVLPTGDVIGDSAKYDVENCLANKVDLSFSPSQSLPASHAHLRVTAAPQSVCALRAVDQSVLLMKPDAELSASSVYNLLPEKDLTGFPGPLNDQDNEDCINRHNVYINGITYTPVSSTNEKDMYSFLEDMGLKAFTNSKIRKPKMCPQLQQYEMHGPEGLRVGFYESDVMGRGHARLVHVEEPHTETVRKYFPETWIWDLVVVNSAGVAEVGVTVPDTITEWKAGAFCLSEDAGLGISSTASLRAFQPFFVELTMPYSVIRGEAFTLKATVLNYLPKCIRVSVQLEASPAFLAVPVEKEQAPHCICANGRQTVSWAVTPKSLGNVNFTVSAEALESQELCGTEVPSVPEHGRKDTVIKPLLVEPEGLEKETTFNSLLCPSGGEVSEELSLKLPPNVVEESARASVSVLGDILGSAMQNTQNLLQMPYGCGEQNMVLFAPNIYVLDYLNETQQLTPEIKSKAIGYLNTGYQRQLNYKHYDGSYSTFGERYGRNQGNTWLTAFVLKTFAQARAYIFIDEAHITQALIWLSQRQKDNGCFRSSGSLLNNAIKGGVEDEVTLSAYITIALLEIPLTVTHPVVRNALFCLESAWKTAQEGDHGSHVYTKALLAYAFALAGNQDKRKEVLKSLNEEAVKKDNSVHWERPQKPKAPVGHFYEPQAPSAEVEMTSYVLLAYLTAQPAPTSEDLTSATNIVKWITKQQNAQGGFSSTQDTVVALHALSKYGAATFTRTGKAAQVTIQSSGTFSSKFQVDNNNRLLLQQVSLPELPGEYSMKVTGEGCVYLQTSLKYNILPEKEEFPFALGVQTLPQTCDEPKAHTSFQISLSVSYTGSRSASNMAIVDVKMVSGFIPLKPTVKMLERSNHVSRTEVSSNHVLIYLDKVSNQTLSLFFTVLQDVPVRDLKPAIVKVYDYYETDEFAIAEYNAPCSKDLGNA
The data set can be described thus: native gel or EMSA; Sulfo-NHS-AMCA-labelled GRAB mixed with hα2M variants at a 4:1 molar ratio, buffer J, two hours at 37 °C, 10% native PAGE, gel fluorescence then Coomassie. Conditions: both partners purified.

In data set [4] the target is T2, methylamine-induced authentic human α2-macroglobulin (human, UniProt P01023 24-1474, thioester bond opened by methylamine, producing a free cysteine).
T2 construct: human α2-macroglobulin, UniProt P01023; plasma protein as m1, induced form; Tetramer (684.1 kDa by SEC-MALLS); also called induced hα2M; induced authentic hα2M
T2 sequence (looked up): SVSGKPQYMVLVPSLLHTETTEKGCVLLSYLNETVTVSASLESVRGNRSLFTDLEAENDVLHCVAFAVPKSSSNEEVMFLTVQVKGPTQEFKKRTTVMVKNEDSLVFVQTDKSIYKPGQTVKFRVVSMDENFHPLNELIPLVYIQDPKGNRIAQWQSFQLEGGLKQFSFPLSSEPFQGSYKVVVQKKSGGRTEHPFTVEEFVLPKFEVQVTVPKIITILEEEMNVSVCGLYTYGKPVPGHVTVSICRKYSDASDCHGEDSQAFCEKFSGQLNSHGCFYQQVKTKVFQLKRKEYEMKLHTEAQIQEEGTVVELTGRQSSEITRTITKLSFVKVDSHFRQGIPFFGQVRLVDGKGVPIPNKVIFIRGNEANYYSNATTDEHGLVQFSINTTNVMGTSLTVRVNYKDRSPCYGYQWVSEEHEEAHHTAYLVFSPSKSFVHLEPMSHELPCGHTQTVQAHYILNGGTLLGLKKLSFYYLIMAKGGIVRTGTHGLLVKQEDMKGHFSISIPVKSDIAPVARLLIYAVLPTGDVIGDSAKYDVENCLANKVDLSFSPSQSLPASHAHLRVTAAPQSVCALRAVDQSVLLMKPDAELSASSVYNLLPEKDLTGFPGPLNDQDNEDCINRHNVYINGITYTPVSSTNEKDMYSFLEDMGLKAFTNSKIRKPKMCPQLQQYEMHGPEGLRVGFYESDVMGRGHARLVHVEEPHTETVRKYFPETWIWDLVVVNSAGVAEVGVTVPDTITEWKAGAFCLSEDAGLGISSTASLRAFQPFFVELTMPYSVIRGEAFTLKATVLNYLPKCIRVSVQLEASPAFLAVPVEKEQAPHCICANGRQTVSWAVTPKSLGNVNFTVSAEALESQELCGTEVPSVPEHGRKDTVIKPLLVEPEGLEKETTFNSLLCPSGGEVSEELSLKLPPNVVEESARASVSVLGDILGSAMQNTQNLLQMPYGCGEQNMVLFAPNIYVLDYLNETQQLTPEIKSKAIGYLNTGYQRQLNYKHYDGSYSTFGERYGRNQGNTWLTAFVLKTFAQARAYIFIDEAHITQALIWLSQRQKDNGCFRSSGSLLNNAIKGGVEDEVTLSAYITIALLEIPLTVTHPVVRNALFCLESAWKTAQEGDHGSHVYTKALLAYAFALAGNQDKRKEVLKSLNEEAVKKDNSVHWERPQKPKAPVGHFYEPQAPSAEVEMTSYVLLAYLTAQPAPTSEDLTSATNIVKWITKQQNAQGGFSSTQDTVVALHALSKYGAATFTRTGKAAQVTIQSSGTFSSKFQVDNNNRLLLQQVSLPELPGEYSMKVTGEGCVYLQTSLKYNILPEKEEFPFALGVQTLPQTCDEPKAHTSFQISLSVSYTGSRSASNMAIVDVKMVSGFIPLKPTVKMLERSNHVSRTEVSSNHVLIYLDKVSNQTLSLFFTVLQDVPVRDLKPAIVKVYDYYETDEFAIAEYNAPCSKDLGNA
The description is as above. The settings on record: both partners purified.

B1: recombinant full-length human α2-macroglobulin from S2 cells (natural protein)
chain: SVSGKPQYMVLVPSLLHTETTEKGCVLLSYLNETVTVSASLESVRGNRSLFTDLEAENDVLHCVAFAVPKSSSNEEVMFLTVQVKGPTQEFKKRTTVMVKNEDSLVFVQTDKSIYKPGQTVKFRVVSMDENFHPLNELIPLVYIQDPKGNRIAQWQSFQLEGGLKQFSFPLSSEPFQGSYKVVVQKKSGGRTEHPFTVEEFVLPKFEVQVTVPKIITILEEEMNVSVCGLYTYGKPVPGHVTVSICRKYSDASDCHGEDSQAFCEKFSGQLNSHGCFYQQVKTKVFQLKRKEYEMKLHTEAQIQEEGTVVELTGRQSSEITRTITKLSFVKVDSHFRQGIPFFGQVRLVDGKGVPIPNKVIFIRGNEANYYSNATTDEHGLVQFSINTTNVMGTSLTVRVNYKDRSPCYGYQWVSEEHEEAHHTAYLVFSPSKSFVHLEPMSHELPCGHTQTVQAHYILNGGTLLGLKKLSFYYLIMAKGGIVRTGTHGLLVKQEDMKGHFSISIPVKSDIAPVARLLIYAVLPTGDVIGDSAKYDVENCLANKVDLSFSPSQSLPASHAHLRVTAAPQSVCALRAVDQSVLLMKPDAELSASSVYNLLPEKDLTGFPGPLNDQDNEDCINRHNVYINGITYTPVSSTNEKDMYSFLEDMGLKAFTNSKIRKPKMCPQLQQYEMHGPEGLRVGFYESDVMGRGHARLVHVEEPHTETVRKYFPETWIWDLVVVNSAGVAEVGVTVPDTITEWKAGAFCLSEDAGLGISSTASLRAFQPFFVELTMPYSVIRGEAFTLKATVLNYLPKCIRVSVQLEASPAFLAVPVEKEQAPHCICANGRQTVSWAVTPKSLGNVNFTVSAEALESQELCGTEVPSVPEHGRKDTVIKPLLVEPEGLEKETTFNSLLCPSGGEVSEELSLKLPPNVVEESARASVSVLGDILGSAMQNTQNLLQMPYGCGEQNMVLFAPNIYVLDYLNETQQLTPEIKSKAIGYLNTGYQRQLNYKHYDGSYSTFGERYGRNQGNTWLTAFVLKTFAQARAYIFIDEAHITQALIWLSQRQKDNGCFRSSGSLLNNAIKGGVEDEVTLSAYITIALLEIPLTVTHPVVRNALFCLESAWKTAQEGDHGSHVYTKALLAYAFALAGNQDKRKEVLKSLNEEAVKKDNSVHWERPQKPKAPVGHFYEPQAPSAEVEMTSYVLLAYLTAQPAPTSEDLTSATNIVKWITKQQNAQGGFSSTQDTVVALHALSKYGAATFTRTGKAAQVTIQSSGTFSSKFQVDNNNRLLLQQVSLPELPGEYSMKVTGEGCVYLQTSLKYNILPEKEEFPFALGVQTLPQTCDEPKAHTSFQISLSVSYTGSRSASNMAIVDVKMVSGFIPLKPTVKMLERSNHVSRTEVSSNHVLIYLDKVSNQTLSLFFTVLQDVPVRDLKPAIVKVYDYYETDEFAIAEYNAPCSKDLGNPTG
notes: human α2-macroglobulin, UniProt P01023, residues S24-N1473; residues from the construct before the His6-tag; Found in the induced form; also called recombinant hα2M from S2 cells; pIE-hα2M-H6; source: Drosophila S2 cells, transiently transfected, secreted (AKH signal peptide), purified (Ni-NTA, IEC, SEC); not shown: His6, C-terminal, kept
Take B1: in data set [1], the “stoichiometry N” value turned out to be 4.

B2: recombinant full-length human α2-macroglobulin from Expi293F cells (natural protein, UniProt P01023 24-1468, looked up)
chain: SVSGKPQYMVLVPSLLHTETTEKGCVLLSYLNETVTVSASLESVRGNRSLFTDLEAENDVLHCVAFAVPKSSSNEEVMFLTVQVKGPTQEFKKRTTVMVKNEDSLVFVQTDKSIYKPGQTVKFRVVSMDENFHPLNELIPLVYIQDPKGNRIAQWQSFQLEGGLKQFSFPLSSEPFQGSYKVVVQKKSGGRTEHPFTVEEFVLPKFEVQVTVPKIITILEEEMNVSVCGLYTYGKPVPGHVTVSICRKYSDASDCHGEDSQAFCEKFSGQLNSHGCFYQQVKTKVFQLKRKEYEMKLHTEAQIQEEGTVVELTGRQSSEITRTITKLSFVKVDSHFRQGIPFFGQVRLVDGKGVPIPNKVIFIRGNEANYYSNATTDEHGLVQFSINTTNVMGTSLTVRVNYKDRSPCYGYQWVSEEHEEAHHTAYLVFSPSKSFVHLEPMSHELPCGHTQTVQAHYILNGGTLLGLKKLSFYYLIMAKGGIVRTGTHGLLVKQEDMKGHFSISIPVKSDIAPVARLLIYAVLPTGDVIGDSAKYDVENCLANKVDLSFSPSQSLPASHAHLRVTAAPQSVCALRAVDQSVLLMKPDAELSASSVYNLLPEKDLTGFPGPLNDQDNEDCINRHNVYINGITYTPVSSTNEKDMYSFLEDMGLKAFTNSKIRKPKMCPQLQQYEMHGPEGLRVGFYESDVMGRGHARLVHVEEPHTETVRKYFPETWIWDLVVVNSAGVAEVGVTVPDTITEWKAGAFCLSEDAGLGISSTASLRAFQPFFVELTMPYSVIRGEAFTLKATVLNYLPKCIRVSVQLEASPAFLAVPVEKEQAPHCICANGRQTVSWAVTPKSLGNVNFTVSAEALESQELCGTEVPSVPEHGRKDTVIKPLLVEPEGLEKETTFNSLLCPSGGEVSEELSLKLPPNVVEESARASVSVLGDILGSAMQNTQNLLQMPYGCGEQNMVLFAPNIYVLDYLNETQQLTPEIKSKAIGYLNTGYQRQLNYKHYDGSYSTFGERYGRNQGNTWLTAFVLKTFAQARAYIFIDEAHITQALIWLSQRQKDNGCFRSSGSLLNNAIKGGVEDEVTLSAYITIALLEIPLTVTHPVVRNALFCLESAWKTAQEGDHGSHVYTKALLAYAFALAGNQDKRKEVLKSLNEEAVKKDNSVHWERPQKPKAPVGHFYEPQAPSAEVEMTSYVLLAYLTAQPAPTSEDLTSATNIVKWITKQQNAQGGFSSTQDTVVALHALSKYGAATFTRTGKAAQVTIQSSGTFSSKFQVDNNNRLLLQQVSLPELPGEYSMKVTGEGCVYLQTSLKYNILPEKEEFPFALGVQTLPQTCDEPKAHTSFQISLSVSYTGSRSASNMAIVDVKMVSGFIPLKPTVKMLERSNHVSRTEVSSNHVLIYLDKVSNQTLSLFFTVLQDVPVRDLKPAIVKVYDYYETDEFAIAEYNAPCS
notes: human α2-macroglobulin, UniProt P01023, residues S24-S1468; also called recombinant hα2M from Expi293F cells; pS6-hα2M-H6; source: Expi293F cells, transiently transfected, secreted (mouse Ig κ leader), purified (Ni-NTA, IEC, SEC); not shown: His6, C-terminal, kept
As for B2, the “stoichiometry N” value in data set [2] was 4.

B3: G-related α2M-binding protein (GRAB), V34-N181, labelled with Sulfo-NHS-AMCA (domain or fragment)
chain: GAMVDSPIEQPRIIPNGGTLTNLLGNAPEKLALRNEERAIDELKKQAIEDKEATTAIEAASSDALEALADQTDALQSEEAAVVKADNAASDALEALADQTDALQSEEAEVVQSDNAASDAWEKAATPIALDVKKTKDTKPVVKKEERQNVN
modifications: sulfosuccinimidyl-7-amino-4-methylcoumarin-3-acetate (Sulfo-NHS-AMCA) label, sites not stated
notes: residues left at the N-terminus after TEV cleavage, from the cloning strategy; also called fluorophore-labelled GRAB; labelled GRAB; source: E. coli BL21 (DE3), purified, labelled with Sulfo-NHS-AMCA; not shown: His6, N-terminal, cleaved
Consider B3, for which the binding result in data set [3] and in data set [4] was “binds” in each case.
